In IntAct's records for PubMed 22634751:

B1: Cyclin-dependent kinase inhibitor 1C (Homo sapiens), P49918 (parent)
chain: MSDASLRSTSTMERLVARGTFPVLVRTSACRSLFGPVDHEELSRELQARLAELNAEDQNRWDYDFQQDMPLRGPGRLQWTEVDSDSVPAFYRETVQVGRCRLLLAPRPVAVAVAVSPPLEPAAESLDGLEEAPEQLPSVPVPAPASTPPPVPVLAPAPAPAPAPVAAPVAAPVAVAVLAPAPAPAPAPAPAPAPVAAPAPAPAPAPAPAPAPAPAPDAAPQESAEQGANQGQRGQEPLADQLHSGISGRPAAGTAAASANGAAIKKLSGPLISDFFAKRKRSAPEKSSGDVPAPCPSPSAAPGVGSVEQTPRKRLR

Variants of: B1
Conditions: with pcna_human PCNA

effect of a mutation on the interaction | Variant
disrupting interaction | F276V
disrupting interaction | K278E
